How the values were obtained:
[1] = biological target: natural HCV acceptors on human liver cancer cells Huh 7.5.1; test: flow cytometry, binding to Huh 7.5.1 cells (FIG. 6), no aptamer
[2] = biological target: natural HCV acceptors on human liver cancer cells Huh 7.5.1; test: flow cytometry, binding to Huh 7.5.1 cells (FIG. 6), with the thirteenth-round DNA aptamer library present as competitor
[3] = biological target: natural HCV acceptors on human liver cancer cells Huh 7.5.1; test: flow cytometry, binding to Huh 7.5.1 cells (FIG. 6), with a single DNA aptamer present as competitor
[4] = biological target: natural HCV acceptors on human liver cancer cells Huh 7.5.1; test: flow cytometry, binding to Huh 7.5.1 cells (FIG. 6), control protein

Row | binding rate [4] | Substance | binding rate [1] | binding rate [2] | binding rate [3]
1 |  | GST-E2 | 36.7% | 23.2% | 15.4%
2 | 1% | protein GST |  |  | 

Source: US20100184837A1
